# Test system: p2-encoded leu2*
# Assay: p2 leu2* fluctuation tests in GA-Y021 (p2 mutation rate reporter strain)
# Assay type: cell-based, S. cerevisiae
# Conditions: for Per-base substitution rate pf p2: TP-DNAP2 variant in trans, wt TP-DNAP2 in cis, 36 replicates, (95% C.I.); for Fold increase: p2 substitution rate over no variant in trans
# Excerpt: For fluctuation tests used to measure p2 mutation rates, leu2* served as a marker for detecting mutational events. leu2* is a disabled version of LEU2, where Q180 is replaced with a TAA stop codon. Q180 is a permissive site where mutation to any other codon other than TAG and TGA results in functional reversion to LEU2. These mutational events can be detected by plating scores of parallel cultures on medium lacking leucine and counting the number distribution of functional LEU2 mutants.
# For TP-DNAP2 library screening, each library member was subjected to small-scale leu2* fluctuation tests with six replicates. 190 library members from each yeast library transformation were arrayed and inoculated into liquid SC medium lacking uracil and histidine, and passaged three times at 1:10,000 dilutions. mKate2 fluorescence was measured at every passage on a microplate reader (TECAN Infinite® 200 PRO, settings: λex=588, λem=633) to track p2 copy number stabilization. To perform fluctuation tests, each library member was diluted 1:10,000 into liquid SC medium buffered to pH 5.8 and lacking uracil, histidine, tryptophan, and dilutions were split into six 100 μL replicates. Cultures were grown for 48 hours at 30° C. to reach saturation. Saturated cultures were washed with 200 μL 0.9% NaCl to remove residual leucine and resuspended in 35 μL of 0.9% NaCl. 10 μL of this resuspension was spot plated onto solid SC medium buffered to pH 5.8 and lacking uracil, histidine, tryptophan and leucine. Spot plates were allowed to dry and incubated at 30° C. Colonies were counted after 5 days. Colony counts were used to calculate the expected number of LEU2 functional mutants (m), using the p0 method (Foster, 2006, Methods Enzymol, 409:195-213).
# To precisely measure p1 and p2 per-base substitution mutation rates, several modifications were made to the small-scale protocol. First, 36 replicates were performed for reconfirmation of candidate TP-DNAP2 mutators, and 48 replicates for genomic and mutual orthogonality experiments. Titers were also determined for each strain after spot plating by pooling the residual volume from 4 replicates and plating dilutions on YPD. The expected number of LEU2 functional mutants (m) was determined by the Ma-Sandri-Sarkar maximum likelihood estimator (as calculated by the FALCOR tool and corrected for partial plating (Foster, 2006, Methods Enzymol, 409:195-213; Sarkar et al., 1992, Genetica, 85:173-179; Hall et al., 2009, Bioinformatics, 25:1564-1565). The mean mKate2 fluorescence was determined from 50,000 event counts on Attune™ NxT Flow Cytometer and converted to p2 copy number by using a calibration curve. To determine per-base substitution rates, the corrected m was normalized to the average cell titer, the p2 copy number, and the target size for functional leu2* reversion (2.33 bp). 95% confidence intervals were similarly scaled.
# To identify error-prone TP-DNAP2s, a small library of TP-DNAP2s diversified at locations hypothesized to be responsible for DNAP fidelity was screened. […] Four distinct site-saturation mutagenesis libraries were generated, each diversifying S370, Y424, L474, or F882 in TP-DNAP2 encoded on pGA55-reTP-DNAP2. Due to unsuccessful attempts to generate a strain with a full deletion of p2-encoded TP-DNAP2 and simultaneous integration of mKate, URA3, and leu2*, each library was transformed into GA-Y021 for convenient screening. However, since GA-Y021 still encodes wt TP-DNAP2 on p2-delORF1-mUL*, p2 mutation rates measured in this format are the result of in tandem replication of p2 by wt TP-DNAP2 and each TP-DNAP2 variant encoded in trans. 6-fold coverage of each library was maintained by picking 190 yeast colonies and passaging under selection for URA3 to stabilize the copy number of p2-delORF1-mUL* in the presence of the newly introduced TP-DNAP2 variants. […]
Molecule,Per-base substitution rate pf p2,Fold increase
"Y424E: TP-DNAP2 variant (protein, listed as Kluyveromyces lactis) MNDELAFLNSQIDDYSDDIEFLRTEVFRINRYSKSIYSLMKNSSKEAIKETIEFNKYGQEIHSKIKEKEISLIEAIKLMEKKYKYLRSLNKTKDKSKKKKIHTKDIETLKTIYKTKADFDIRNFKNAETFTYENYSLLIPSEKELIDLIPEIEEDYSYYFYVSLTITGPTIFGGVTRKVPIIDTYGDINKDFYNKIKENITKVLDRVPFYEEKESEIICKKVLITLTVNKWESIDKWYKNVKSKSKKFKDFTLFLASDTSKNCVQQCVEYLGGKWNTNYSLEKMIPQQKIVTYIPLLMDIQYVQSMEDLISDFDEPNTDCKNIARLLKWNGHMGVITKIDKDVKINRIQRKRIIDVENKEVKEVFFDIESFSDETKHQIPYLICWSYLGELYYRTGKNCIKEFVEEILSYNVDIILYAWYGSGEDYQHVLPYMKSKCIKDKYIIKNNMITYGELYYENAIIYLKDPYLFILTSLDKASKAFNVINKGEFPHSIIHSWEDLNKILPNWVKIQKRMIEYKDDNKLNIYYKNIEIFENDRNYNTILENAIEYCKVDVLAMEKVWIKFKKLLEKNLNITVSVKTFTLSQLSMKIMESKLPKYVKLYVPTLEEYSKIRNAIYGGRVISKNGIYEENIVYADVVSLYPSAMKLLKHSYGKPKLVDYIDFEKHGIYRVTLLNKHDQEPKNYLNFVPRRINRKLTWEWFKIHEGWYHTYDLIIAKSEGFDIYCHEGFEYPEKDYIFNDFIDTLYSMKETHTACSCEEQPCPIRMVAKIALNGGGYGKFVQKPIDKEIYIVKRDVVAGECDKLQENENGEICIGKRLVKRPLFYNLDSENYDKMIIEKEDEPIYSTQCGISILSASRYRLYKLCKQFENIDIIYSDTDSIFVKQKSVDWELFKSKCGSELGQLDSTIDDTKNAIISKMYIGGAKMYAFEYLNNKNKLITKLHCKGVPNYMLSLNQFKYLMESPDNTIAYKFEIIRRKLVNVITKDLIKDIKQT",73.3 (55.2-93.3) ×10^−10,12.3
L474A: TP-DNAP2 variant (protein) MDYKDKALNDLRNVYADFDSLPLDFRQILIKDRATLLQKEDVEKKILERQEDAKKYAEYLKQSEIPERISLPNIKRHKGVSISFEETSEDMVLEPRPFIFDGLNIRCFRRETIFSLKNKILNMVKESSSFKNVSRQSVSFMYFKIFNKGKVIASTKSVNIYEDKIDERLEDLCNNFDDVLKKIIDVTYGYESLFVSETYSYVIFYAKSIYFPQPRCVNNWGNNIPNILTFDSFKLFTANKNNVSCIKQCSRFLWQKDFNTLEEMIEYKNGNICIVTPQLHINDVRDIKSFNDIRLYSESPIKTFSVIDNTITYLFYFKEHLGVIFNITKSRHDRRVTKFSPLSKFSDVKNITVCFDIESYFDPEKESNQVNIPFICCASIIYNKVIGNIVDFEGRDCVAQMIEYVVDICGELNISSVELIAHNGGGYDFHYILSSMYNPAAIKNILIRNNSFISFNFAHDGVKFSVKDSYSFLACSLANASKAFLNEETFKKTDFPHHDLKTADDLYKVYKEWSSVNTEINHVVEKEKLLITSEHIVNFTKNDKSKTLIEWSKDYCRNDVLVLSKVWLEFKNAVEDIFNCELVDQTMTLAGLSYKLFQANMPFDVELRHPNKEDYFNMREALIGGRCISVNGIYKDVLCLDVKSLYPASMAFYDQPYGSFKRVSSRPKDELGIYYVRVTPNRNNKSNFFPIRSHNKITYNNFEESTYIAWYTNVDIDIGLSEGHNIEYIPFDSYGNIGYSWSKKGKIFEKYIKDVLYKLKIKYEKQNNKVKRNVIKIIMNSLWGKFAQKWVNFEYFIKSEDDIDFESEEAYKIWDTDFMLIKKIKESTYSSKPIQNGVFTLSWARYHMKSIWDAGAKEGAECIYSDTDSIFVHKEHFKKNAKFMLNGLKVPIIGSEVGQLELECEFDKLLCAGKKQYMGFYTYFQDGKPCIKEKKRFKGIPSNYIIPELYAHLLSGADKEAKIQFLKFRREWGSVKGYIENKTVKAT,8.37 (4.80-12.6) ×10^−10,1.4
L474V: TP-DNAP2 variant (protein) MDYKDKALNDLRNVYADFDSLPLDFRQILIKDRATLLQKEDVEKKILERQEDAKKYAEYLKQSEIPERISLPNIKRHKGVSISFEETSEDMVLEPRPFIFDGLNIRCFRRETIFSLKNKILNMVKESSSFKNVSRQSVSFMYFKIFNKGKVIASTKSVNIYEDKIDERLEDLCNNFDDVLKKIIDVTYGYESLFVSETYSYVIFYAKSIYFPQPRCVNNWGNNIPNILTFDSFKLFTANKNNVSCIKQCSRFLWQKDFNTLEEMIEYKNGNICIVTPQLHINDVRDIKSFNDIRLYSESPIKTFSVIDNTITYLFYFKEHLGVIFNITKSRHDRRVTKFSPLSKFSDVKNITVCFDIESYFDPEKESNQVNIPFICCASIIYNKVIGNIVDFEGRDCVAQMIEYVVDICGELNISSVELIAHNGGGYDFHYILSSMYNPAAIKNILIRNNSFISFNFAHDGVKFSVKDSYSFLVCSLANASKAFLNEETFKKTDFPHHDLKTADDLYKVYKEWSSVNTEINHVVEKEKLLITSEHIVNFTKNDKSKTLIEWSKDYCRNDVLVLSKVWLEFKNAVEDIFNCELVDQTMTLAGLSYKLFQANMPFDVELRHPNKEDYFNMREALIGGRCISVNGIYKDVLCLDVKSLYPASMAFYDQPYGSFKRVSSRPKDELGIYYVRVTPNRNNKSNFFPIRSHNKITYNNFEESTYIAWYTNVDIDIGLSEGHNIEYIPFDSYGNIGYSWSKKGKIFEKYIKDVLYKLKIKYEKQNNKVKRNVIKIIMNSLWGKFAQKWVNFEYFIKSEDDIDFESEEAYKIWDTDFMLIKKIKESTYSSKPIQNGVFTLSWARYHMKSIWDAGAKEGAECIYSDTDSIFVHKEHFKKNAKFMLNGLKVPIIGSEVGQLELECEFDKLLCAGKKQYMGFYTYFQDGKPCIKEKKRFKGIPSNYIIPELYAHLLSGADKEAKIQFLKFRREWGSVKGYIENKTVKAT,5.76 (2.88-9.33) ×10^−10,1.0

# — patent US20230242902A1, “A HIGHLY ERROR-PRONE […] R[…] FOR TARGETED CONTINUOUS EVOLUTION IN VIVO” (The Regents of the University of California, priority 2017, published 2023)
